Assay: soluble on expression in E. coli; label from the status in PepcDB or PDB records

Soluble on expression in E. coli, not soluble:
MGSDKIHHHHHHMQVGDRIVVRQEEFDTIGHVLSVDPLIVRPHARGGLPSNAEPVRIDNPLMIKRLSPRTVRNADIRAIEVATAKAFPGIEHTWCGQWLLRAGDGVTERSNSAAPLGPQALFTPVPYEEIKEFYRRHNLPALILVPERIAPAIPDDGPEIIVMTHPLDNVSEIDDVHAEFLDQPDDDWLELYHFRGKALPRHALELLRTTIDGRMCFGRLKRDGKTVAITRGTITDGYLGYSAVEVAPEYRRQGLATELGAAMLAWGKAHGAHTAYLQVIESNAAGIGLYHKLGFVEHHRHKYVRVS
MGSDKIHHHHHHMQWLTFQWLEFIREYREKAKHNLSNSGMPEPDLKSLGIDTSYEHYLDAAGEVEYRFTEALSRRLRVDQDLIIPTVGGTEAIFIALSHLSSVSKRIHVPLPEYEPMFLVPESLGIETSKIESKVMPGRISKNESIAMTLPNNPTAQYSDRISLLDNVIHSEGLIYIDETFRDFLPSGTRPTLFDGSETMVVSGTMTKFYGLSNLRTGWIISSEHNVAGMRRIKDLTSINNASFSLYIAAQAIQKWNYFKEAEDNLINKNLRVAREYLEGLPGISYKEPEGAPFIFLSYSKNIESVKLAKLAVERYGILFAPGSFFGEEHHIRVCLTSNKPEEDFNVLKEFLKKEAV
MGSDKIHHHHHHMRAAQYLRMSTEHQTYSIDNQRDAIRDYAEIMGYEIVATYEDAGRSGLNLGGRPGLQRLLADVESGRADFETVVVYDVSRWGRFQNIDESAAYEYRCQMAGVRIEFCAEQFANDGSIESDVLKAIKRSMAAEQSRMLSQKVFIGQARLIRMGFRQGSKVGFGLRRLLVDQHGRPKGILSPSEYKSLQTDRIILVLGPPDEIATVRWIFGHFVKTRKTELEMARLLNKRGVLSDLGRPWTRVSVHSVLTNENYIGNSIWNKHSARLRSHQVRNPPELWVRVENILEPIVDRKLFNRAQIVLKTIYRHLTNDEMLAALKALLARRGALSSFIIDAAPDCPPSTRYMSRFGTIVKAYELIGYEPPKNSRYIFVNRRLETMRLQIIEDLLAAVEKRGGIATHVMETDLLRINQEITVAIATGRCRVSSFGYPRWFAKADREPPPDIFVLIRMNPDDLSIRDYLIAPAHEIAGKSELHAINGARLDTYIFPTLNPLIRLAERASVGSAAWN
MGSDKIHHHHHHMRALLSGYYGKGNGGDEALLATLLQMLPSHVTPVVLSGNPEETSDRYGVESHNRMSLTSVLPALRSCDAFIWGGGSLIQDVTSSISPFYYGGLMALAQKMGLKTVAWAQGIGPLVRPQTRWLAQHNFSGCTTVSVRDRVSAALLADWQIPYILAPDPVWALQAKPFPELANLPTPRIAVTLRNHPQLTAPRLANLTQALVSLQKSTQAFILLLPFQKSEDLAIAQAIQPQLKDVSEIVCIEDPQILKGVFRGVEMAIGMRLHSLIMAASEGCRCFALSYDPKINRLMEDLAIPGWDLANLPDNANVISKTWIDFYTNAQPLASEKITTLVEGAFMHRELLRKALGRIN
MGSDKIHHHHHHMRAPKISEGKINCKEDDNLKLTVLVDNNTILSNNPHFQDRYFLSEPGLSIFIEADGKKVLFDTGHTGIFLQNSEKMNLDLSDLDYLVLSHGHIDHTGGLKSLIDFYQNQGKTNLKDKPTLIAHPECFLSKIDSPWGEIGCGIPEAEITCHFQLQLSREPLWLTENLVFLGEIERSNDFENLTPLGKVHKNTEGQDDYILDDSALVYKGSKGLIIITGCSHAGICNITKYAQKVCRDERVIDIIGGLHLINPGPIQMEKTKEFLKNVAPQTIRACHCTSLRPKIALAESLNMEEVGTGLQLEYY
MGSDKIHHHHHHMRCSPCRMQQAHTPPHSAKSIKHDVKRRIILDAARRMFAHDGAGSVSMRNLAREVGCSAAVLYRYFGSRESILWELRCEGIVLLNDALMGAADAADPLLRLQQLGRAYVSFGIDNLEYYELMFRTPFYEFDAGSLPDGLPDDALVLLHSTAAECLELGYFAGSDVTTVVSSMWSLVHGLVSLILNGRAPLMMGALDTHAMIDRVPDFIAGLARAARGGI
MGSDKIHHHHHHMRFGWLEQPFTTLEQLDSLFEIHSPRKFTFADSFYAHENGRHFIFFEEVDDQHPVGFLSVLEVFKDGTYTPPETILKLDYHLSYPCVFKIDSTWYMIPESSANKTIELWKCTDFPMKWEKHSNLMENIEAVDSTPFYHEGLWYLFTSTRRDCKKFGDRLDLFFTEDILNPNWQEHPMNPACRGSQQFRMAGKPFIYKGQLVRPSQDSLKRYGGNIELKAITQLSPAAYEEKLLEVVLPDWNQADDGCHTINVEDNFVVLDAIRLTPKNN
MGSDKIHHHHHHMRFMLYEFLKNNYKEAEPIFFSDIVIEGITKSAVNQQLKKLCDEGKLQKYENGIYYLPKKSRLKTNVGVNADMVARYKYVSRGGKVDGFYSGNTFANQLGISTQVPNKVEIVSNNMAAKIREIPIGKRTFIVRRPVVPVNEENVYVLQLLDLLKNLDMYLDESYDVAHDKVSQFVQIHGITKNDVDSYIREFPIAIFRYYYELRLDDVFA
MGSDKIHHHHHHMRIFDAHCDALLKLWEDPAREYTDDPAIEANAVRLMEGGVRAQCFAIFVGPNIPFDQKFQVALQQAELFHEKILKKHPQFSFIERWDDLLTLDADQIGAILTLEGADPFGDDPTKLKTLYRLGVRSLGLTWNQANLCADGVGEPRGGGLTEWGKAVVSLNNEHHVLTDVSHLSERGFWDVIEYAQFPVATHSNAKAICKHRRNLTDAQLKALIEAGGFIGIVFHPHFLTGTDDASIDDVMKHIEHICSLGGQKHVGFGSDFDGIPCFVDGLEHAGRFQWFMDELLKRYDEELVRGFAWDNFLKATPISYV
MGSDKIHHHHHHMRIFFLDQSGKPGGAELCLIDIAKPYSHSALVGLFADGPFKDLLEQNHIPVEILATQTIQVSKESSLAQGLKSLGQLAPLITKVIKKAREYDLIYANTQKALVVGALASFFSRRPLVYHLHDILSTEHFSQTNLRIAINLANRCASLVIANSQASKTAFIQAGGRSDIVEVVYNGFDLKIYQTDEPGINQLQQKLGLQGKFVVGHFSRLAPWKGQHILIDALAKCPPEVTVILVGDALFGEQDYAQKLHKQVTDLGLENRVKFLGFRSDIPQLMAACDLVAHTSTSPEPFGRVIVEAMLCGKPVVAAKAGGVMELVEHGLNGFLVTPGEPQELAQVIITCLQETEITATIANNARTTASRRFDVATINQQIAQLLSHRF
MGSDKIHHHHHHMRITEFYVSNFRSLSEVNLKDLGGFNIVVGYNGYGKTNLLSSIFLFVKNLSAGIEKRSIEDRNQEFILLWQGYDVSKPIMIGGKVEFSPEESNKIVGKNQKITLEIINKMRYNNKFVEWNLDTLYINGSPPGEDDLKVAKKLAEYASQAIEYVPIFDQTYFDETLKRMTEMNKSPINLRKYWYDFVNLVAATIPEVKGMEFWDGRRLVLNVYNLPIYIDLAASGFQRVILMLFIIWLSGNKILLIEEPEVNMHPTLQAKIMKLIKNWTDNNILQSFLTTHSPYIVEMAADSYVVMRRVNGNSTAITVKPTPDLRGTISLLNASLSNILFSRIIILTSELAEPSVIVNWLKRLNINVEDNGISIYKVSSDLELQHWLKLKNMLNLDVIFLGLCDKLDMSLKDYCVPLSREVENFYSKQALLEVLRRLGIYPDEKEIRDLGKEENLRWIINVLRKRGIEYEKLRMSIGELITDVDSIEIPKEIEILANKIKSLQATL
MGSDKIHHHHHHMRIYDPFRKKWIEEEIETPFPSKGLVATFPFVDLHVHVRLNGGEDYSSLEEASLVGGFFKVVVQPNTKPLIDSKEVLERHLDLSKNRAVEFLFAVSPFGSIEAEGERVVGFSTDGIEYDYPTLVETMKKKKKALWFDHSQMYEVDGIFYEGAPLPFQKRPRSNEAIAIARTVLTGLEYGFERFHIQHVTTKYSVEVISFLKNLAKVSCEVTPHHLFFCYEDIKNTNFKINPPLGSPEDRRALIEAVKKDVIDVLATDHAPHHEKPDDFLTAPYGSTSIEIAFPAYYTALGDLELVVKKLTKKPLEVLGVEARLTEDTLVFIDPEAEFIVDAKKFKSKGKNSMFDGVRLKGKVVALKLKGRWVMIDGEVIADQKEND
MGSDKIHHHHHHMRKDEYRATLLEPNVWHIADYRGDSMYLVVGEEKALLVDTGMGEGDLKGFVRSITEKPVEVVLTHAHWDHIMQANQFEKVYLNHRDFQIIELFKINVNYENFLNVKEGDRFDLGGRTLEVIEVPGHTPGSIVLLDRENRLLFSGDSVGAGHTWMHLPGCLPLREYLKSLKKLKETDSFEKIYHGHLTGTQLKPFGPDYLDDLIKAVEGVIDGSLRGEP
MGSDKIHHHHHHMRKILLPYPAGCATGTFVRRVKRFSVEMTRDGESVWVHSNNSGSMLGLLRPGATMLASPAANPDRKLAWTHEAMRCHGDGPQGFWVGVNTSVPNRMVEAAFHAGRLPWAQGYDTFRRERKRGDSRLDARLDGPGLPTLWVECKNVTMVEDDVACFPDAVTERGSKHLREMMDIVSRGERAAMFYLVQRPDGLCFGPADVIDPQYAALFWEAVDAGVEMYPHRGIVSPVGIDLSGVLPLTRCR
MGSDKIHHHHHHMRKPGDFLESGMTESVNEKADVMKVPVPNLALGMYVAAIDHQGRVNITNPGQIKDRQAIDKLVRNGIEYVWVDVERSAPECGLRPKQEPEKIIRLTRDQSQEKAKRLMSEAKDLVKKVLSETFEGKAVKVEPFEALADKMLESVMLDADAFKCISALRSKDAYLLEHSINVAFLLVTFGRYLKLKRSVLKQLAVGGILHDIGKVRVNNRILHKPGRLTPEEFEHMKLHQVYAQEILAETEDLSQISRDVCLMHHEKLDGKGYPNGLKGEEISLHGRMSCIVDIFDALTATRCYKEAMSPAAAFKILLSLTPFHLDEKLVYEFIRCVGIYPVGSLVQLSDGRIGIVWEAKDRDALHPVLKTFYSVKHKHYTEVTMVDLLKSDLFIERGVSPSSLDVDPTPFY
MGSDKIHHHHHHMRLDLFFDRLLSTEGDKLATVAKNTILEPSVAYFDFTASGLAYRTIEERIASILPRYANTHSEVTNHALFMTELYDEARANLKRHMDLDEEFALFPCGNGSTGAIKKFQELMGLYLPPRTQKRLSLTPDPALFPVVFVGPYEHHSNEVSYRESPCEVVRIPLDSRGLVDMGVLRAKLGEYQGREIITSFSLASNVTGIIIPYEEISALIRKAGGIVTFDMATASSYMNIPSKFFDAAFFSPHKLLGGVGSCGLLAMRKSLIDSTLPPTFAGGGTVTYVSRIDQYYREDPEYREDAGTPGVLQLLRASLAYQLRNEVGLEFIAKRKKELCAPLVEALRKMERVKIYGDIESCNRLGIFAINIEGISPYEVCQRLSREYLIETRAGCSCAGPYGHDLLGLKDDGLFASRPGWVRISVHYSHSLEQIERLLGALEEIARD
MGSDKIHHHHHHMRLFKSLKNPKKTDAKLPKKSSGLNNRAAIGIDIDQHSIKMVQLSGRSLNQIQLEKYVIAKLPKNIIQGNKVQNYDQLVTYLQQAYAKLGTSCKNIVASVPQNLATIEQLTYTAKDAELDLQGFVESSISEASSISLEEANYDYQVLSQSAVGEAVLSVASRKDEIEPLIDAFNAAGMKLSALDVDIFGQYNAYALWINHFAPELADEKVAIFGVYAAQTYALVIQDGKILYKQETSVSEEQLNQLIQRTYQVTAEKAEEIINSPQKPSDYQESVANYFNQQITQEIQRVLQFYYTTQTADDMTDIKHILLTGEAVRQKGIAQTVASQTNADVQCVHPARYFANDLKTDEQQFELDAPTLTKAFGLAVRGL
MGSDKIHHHHHHMRMDHQLAERWIAPYSHVLDLGCGNGELLAHLQQNRGVTGYGLEIDEDKINEAIANGLSIVEQDLNDGLARFADNSFDTVVMARALQAVKSPDVLLLDMLRVAREAVITFPNFAHWQNRIHLGLKGIMPVSEALPYEWYNTPNIHLCTFKDFEKLCAQHDIHIINRFAVSDSEKGHSSLMTALIRRAPNLLADVAIYRVSKQKPE
